Experimental data published in doi:10.1101/2024.04.19.590217 (bioRxiv, 2024).

Target: the molecule itself
Assay: cryo-EM structure

B1: Simian Virus 40 (SV40) Large Tumour Antigen (LTag) (enzyme)
chain: MDKVLNREESLQLMDLLGLERSAWGNIPLMRKAYLKKCKEFHPDKGGDEEKMKKMNTLYKKMEDGVKYAHQPDFGGFWDATEIPTYGTDEWEQWWNAFNEENLFCSEEMPSSDDEATADSQHSTPPKKKRKVEDPKDFPSELLSFLSHAVFSNRTLACFAIYTTKEKAALLYKKIMEKYSVTFISRHNSYNHNILFFLTPHRHRVSAINNYAQKLCTFSFLICKGVNKEYLMYSALTRDPFSVIEESLPGGLKEHDFNPEEAEETKQVSWKLVTEYAMETKCDDVLLLLGMYLEFQYSFEMCLKCIKKEQPSHYKYHEKHYANAAIFADSKNQKTICQQAVDTVLAKKRVDSLQLTREQMLTNRFNDLLDRMDIMFGSTGSADIEEWMAGVAWLHCLLPKMDSVVYDFLKCMVYNIPKKRYWLFKGPIDSGKTTLAAALLELCGGKALNVNLPLDRLNFELGVAIDQFLVVFEDVKGTGGESRDLPSGQGINNLDNLRDYLDGSVKVNLEKKHLNKRTQIFPPGIVTMNEYSVPKTLQARFVKQIDFRPKDYLKHCLERSEFLLEKRIIQSGIALLLMLIWYRPVAEFAQSIQSRIVEWKERLDKEFSLSVYQKMKFNVAMGIGVLDWLRNSDDDDEDSQENADKNEDGGEKNMEDSGHETGIDSQSQGSFQAPQSSQSVHDHNQPYHICRGFTCFKKPPTPPPEPET
stoichiometry N: 6
